Measurements as given in paper PMC11994318, “In vitro characterization of the yeast DEAH/RHA RNA helicase Dhr1” (The Journal of Biological Chemistry, 2025).

Columns and labels:
[1] = target: T1, ΔN-Dhr1-WT (Saccharomyces cerevisiae, UniProt Q04217 376-1267); assay: fluorescence polarization; no nucleotide; 10 mM Mg2+; 40 mM Tris-HCl pH 8.0, 40 mM KCl, 150 mM NaCl, 2 mM NaOAc, 2 mM DTT, 10 mM MgCl2, 4% glycerol, 0.05% Tween 20, 25 °C, 10 min; 1.25 nM RNA, 0.625 nM-20 µM protein; details: protein: recombinant; tags: C-terminal His6 (pET21a); label: 5' 6-FAM; single strand
T1 sequence: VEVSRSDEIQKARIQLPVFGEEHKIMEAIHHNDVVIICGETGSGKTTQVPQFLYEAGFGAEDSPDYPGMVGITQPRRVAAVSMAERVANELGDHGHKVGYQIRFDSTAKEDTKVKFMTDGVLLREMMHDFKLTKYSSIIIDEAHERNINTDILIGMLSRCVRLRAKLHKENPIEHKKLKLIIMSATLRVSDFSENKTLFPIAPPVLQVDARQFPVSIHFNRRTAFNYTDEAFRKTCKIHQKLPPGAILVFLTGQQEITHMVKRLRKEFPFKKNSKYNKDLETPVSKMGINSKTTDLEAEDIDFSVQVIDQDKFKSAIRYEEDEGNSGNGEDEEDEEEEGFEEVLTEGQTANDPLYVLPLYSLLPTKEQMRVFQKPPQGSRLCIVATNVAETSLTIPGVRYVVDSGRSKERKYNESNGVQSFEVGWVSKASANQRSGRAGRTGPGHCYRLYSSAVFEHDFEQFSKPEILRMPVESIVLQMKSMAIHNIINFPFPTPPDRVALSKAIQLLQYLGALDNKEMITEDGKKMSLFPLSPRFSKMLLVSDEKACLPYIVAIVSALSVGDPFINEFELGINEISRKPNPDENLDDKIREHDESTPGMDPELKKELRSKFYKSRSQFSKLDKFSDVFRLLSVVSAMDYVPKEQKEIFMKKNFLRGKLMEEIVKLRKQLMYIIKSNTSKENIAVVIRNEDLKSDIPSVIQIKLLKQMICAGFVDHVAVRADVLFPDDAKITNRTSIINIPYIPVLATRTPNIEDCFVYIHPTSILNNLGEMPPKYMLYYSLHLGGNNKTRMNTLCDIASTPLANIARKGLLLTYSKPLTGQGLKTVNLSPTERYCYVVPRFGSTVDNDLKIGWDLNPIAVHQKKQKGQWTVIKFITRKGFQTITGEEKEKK

[2] = target: T2, ΔN-Dhr1-ΔSKTTD (Saccharomyces cerevisiae, UniProt Q04217 376-665+671-1267, internal_change); assay: as above; details: protein: recombinant; tags: C-terminal His6 (pET21a); label: 5' 6-FAM; single strand
T2 sequence: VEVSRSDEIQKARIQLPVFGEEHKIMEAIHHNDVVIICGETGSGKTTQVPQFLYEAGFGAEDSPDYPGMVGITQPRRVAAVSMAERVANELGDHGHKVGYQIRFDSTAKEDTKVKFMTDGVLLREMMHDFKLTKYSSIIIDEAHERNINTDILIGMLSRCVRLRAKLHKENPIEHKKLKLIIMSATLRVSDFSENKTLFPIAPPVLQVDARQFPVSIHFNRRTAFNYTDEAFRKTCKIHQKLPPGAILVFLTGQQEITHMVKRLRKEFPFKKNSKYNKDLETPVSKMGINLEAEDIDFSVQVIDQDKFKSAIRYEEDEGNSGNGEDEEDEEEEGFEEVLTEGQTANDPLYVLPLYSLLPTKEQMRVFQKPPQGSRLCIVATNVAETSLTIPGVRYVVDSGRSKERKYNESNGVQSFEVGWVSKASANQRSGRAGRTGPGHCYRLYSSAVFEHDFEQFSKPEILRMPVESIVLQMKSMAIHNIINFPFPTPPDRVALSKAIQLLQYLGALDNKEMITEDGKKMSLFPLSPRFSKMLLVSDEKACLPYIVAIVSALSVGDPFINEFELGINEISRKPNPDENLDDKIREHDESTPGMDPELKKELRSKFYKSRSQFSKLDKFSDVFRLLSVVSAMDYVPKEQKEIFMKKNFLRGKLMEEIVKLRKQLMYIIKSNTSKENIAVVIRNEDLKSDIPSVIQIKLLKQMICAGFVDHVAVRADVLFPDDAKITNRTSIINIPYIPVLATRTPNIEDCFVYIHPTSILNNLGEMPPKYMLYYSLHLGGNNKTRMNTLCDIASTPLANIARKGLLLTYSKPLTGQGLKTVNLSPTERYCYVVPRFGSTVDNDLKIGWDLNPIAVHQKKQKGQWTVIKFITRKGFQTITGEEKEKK

Work on UUUUUUUUUUUUUUUUUUUU (ssRNA) [U20] yielded a Kd [1] of 300 ± 20 nM and a Kd [2] of 60 ± 10 nM.
